# Reference: article PMC12314576, “The Actin‐Binding Prolyl‐Isomerase Par17 Sustains Its Substrate Selectivity by Interdomain Allostery” (Proteins, 2025)
# Tested on: T1, C[C@H](NC(=O)CCC(=O)O)C(=O)N[C@@H](CCCCN)C(=O)N1CCC[C@H]1C(=O)N[C@@H](Cc1ccccc1)C(=O)Nc1ccc([N+](=O)[O-])cc1
# T1 construct: GST-His6 (PreScission site) (N, cleaved yes); made in house; host or cells: E. coli BL21 (DE3) T1r
# Assay: Protease-coupled isomerase assay (PPIase assay) with the catalytic domain
# Type: biochemical, human
# Conditions: other: as quoted in running text; pH 6.8; 10.0 °C
# Protocol: To determine the catalytic efficiency and substrate specificity of Par14 and Par17, we performed a protease‐coupled assay. In this assay, the trans form of a para‐nitroaniline (pNA) tagged model substrate is cleaved by chymotrypsin, and the resulting change in absorption at 390 nm due to free pNA is measured. When the model substrate is added to the protease‐containing buffer, all trans‐Xaa‐Pro isomers are immediately cleaved by chymotrypsin. Therefore, the extent of the first signal burst observed in the absorption spectrum correlates with the amount of trans isomers of the model substrate formed during the experimental dead time. […] The newly formed trans‐Xaa substrates are immediately cleaved, and isomerization can thus be monitored over time (Figure 2). Eighteen different substrate peptides with varying amino acids at the Xaa position (Suc‐Ala‐Xaa‐Pro‐Phe‐pNa) were measured to determine the isomerase activity and substrate selectivity of Par14 (Par17Δ1–25), Par17, and the catalytic domain (Par17Δ1–60) (Table S1). […]
# We determined the isomerase activity using the PPIase assay described by. […] A baseline was recorded for 5 min (Cary 100Bio UV/Vis spectrophotometer, Varian/Agilent, Santa Clara, US, λ: 390 nm, bandwidth: 1.0 nm, average time between measurements: 0.5 s, temperature: 10°C). […] The solution was mixed by inverting the cuvette three times and the reaction was recorded for 15 min. […]
# PPIase domain (Par17Δ1-60) (Homo sapiens), sequence (chain, as listed by the source mutant): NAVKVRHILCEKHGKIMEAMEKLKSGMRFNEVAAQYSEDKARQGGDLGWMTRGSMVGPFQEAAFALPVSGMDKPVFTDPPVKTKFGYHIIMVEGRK
substance,measurement,value
PPIase domain (Par17Δ1-60) (Homo sapiens),kcat/Km,3700 M⁻¹ s⁻¹
